We go through 61 substances from US10464978B2, “Peptides and combination of peptides for use in immunotherapy against ovarian cancer and other cancers” (immatics biotechnologies GmbH, priority 2015, dated 2019).

The target in this test is HLA-A*02:01 (Homo sapiens, UniProt P04439, D140Y/D185E/D98H/E176V/E277Q/G131W/G231S/I119V/I121R/I166T/I218V/L300P/L318F/N151K/N90K/P208A/P217A/Q86G/Q94H/R138H/R169H/T345S). In words: MHC binding assay: UV-ligand exchange with beta2m ELISA (peptide exchange yield). Particulars: binding to HLA-A*02:01. The gist of the method: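 Peptide-MHC complexes formed by UV-ligand exchange, a UV-cleavable peptide being replaced by the candidate peptide. Exchange products diluted 100-fold, captured on streptavidin-coated plates for 1h at 37° C, then detected with 2 ug/ml HRP anti-β2m (1h, 37° C) and TMB, absorbance 450 nm; value is exchange yield.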

In the case of “129 (GLLDGGVDILL; listed as Homo sapiens) [compound 129]”, the “Peptide exchange (MHC class I binding score, peptide exchange yield)” value (from here on “Peptide exchange”) is recorded as ““+++” (≥50 = +++)”. For the substance “392 (ALLHPQGFEV; listed as Homo sapiens) [compound 392]”, the “Peptide exchange” value was ““++” (≥20% = ++)”.

With “473 (AMATESILHFA; listed as Homo sapiens) [compound 473]”, the “Peptide exchange” value is recorded as ““+++” (≥50 = +++)”. For “269 (RVLEVGALQAV; listed as Homo sapiens) [compound 269]”, the “Peptide exchange” value was ““++” (≥20% = ++)”. In the case of “316 (ILLERLWYV; listed as Homo sapiens) [compound 316]”, the “Peptide exchange” value is ““+++” (≥50 = +++)”. The value for “607 (RLYSGISGLEL; listed as Homo sapiens) [compound 607]” was ““+++” (≥50 = +++)”; that for “436 (HLAEVSAEV; listed as Homo sapiens) [compound 436]” was ““+++” (≥50 = +++)”; that for “358 (ALDEYTSEL; listed as Homo sapiens) [compound 358]” was ““++++” (≥75% = ++++)”. Turning to “279 (ALWGGTQPLL; listed as Homo sapiens) [compound 279]”, the “Peptide exchange” value is ““++” (≥20% = ++)”. The value for “160 (FLFDEEIEQI; listed as Homo sapiens) [compound 160]” was ““+++” (≥50 = +++)”. In the case of “464 (ALNDCIYSV; listed as Homo sapiens) [compound 464]”, the “Peptide exchange” value was ““+++” (≥50 = +++)”. With “209 (KLIESKHEV; listed as Homo sapiens) [compound 209]”, the “Peptide exchange” value is reported as ““++” (≥20% = ++)”.

Consider “55 (SLLDLETLSL; listed as Homo sapiens) [compound 55]”, for which the “Peptide exchange” value is ““++++” (≥75% = ++++)”.

With “379 (IMEGTLTRV; listed as Homo sapiens) [compound 379]”, the “Peptide exchange” value is ““++” (≥20% = ++)”. The same measure for “393 (GLLDTQTSQVLTA; listed as Homo sapiens) [compound 393]”: ““++” (≥20% = ++)”; for “366 (RLLDMGETDLML; listed as Homo sapiens) [compound 366]”: ““+++” (≥50 = +++)”. Turning to “168 (KILDADIQL; listed as Homo sapiens) [compound 168]”, the “Peptide exchange” value is ““++++” (≥75% = ++++)”.

Regarding “602 (YLLEQIKLIEV; listed as Homo sapiens) [compound 602]”, the “Peptide exchange” value is recorded as ““++++” (≥75% = ++++)”. The value for “317 (SLAALVVHV; listed as Homo sapiens) [compound 317]” was ““+++” (≥50 = +++)”; that for “442 (GLLGGGGVLGV; listed as Homo sapiens) [compound 442]” was ““+++” (≥50 = +++)”; that for “466 (VLIANLEKL; listed as Homo sapiens) [compound 466]” was ““++++” (≥75% = ++++)”. Consider “555 (YVLEGLKSV; listed as Homo sapiens) [compound 555]”, for which the “Peptide exchange” value is ““+++” (≥50 = +++)”.

As for “454 (KLPPPPPQA; listed as Homo sapiens) [compound 454]”, the “Peptide exchange” value was ““+++” (≥50 = +++)”. Take “154 (ALDDGTPAL; listed as Homo sapiens) [compound 154]”: the “Peptide exchange” value was ““++” (≥20% = ++)”.

Take “504 (GLSDGNPSL; listed as Homo sapiens) [compound 504]”: the “Peptide exchange” value is ““++” (≥20% = ++)”.

Consider “211 (LLWPGAALL; listed as Homo sapiens) [compound 211]”, for which the “Peptide exchange” value is given as ““++” (≥20% = ++)”. The same measure for “100 (YLLSTNAQL; listed as Homo sapiens) [compound 100]”: ““++++” (≥75% = ++++)”; for “321 (GLFEDVTQPGILL; listed as Homo sapiens) [compound 321]”: ““++++” (≥75% = ++++)”. The value for “125 (VQIHQVAQV; listed as Homo sapiens) [compound 125]” was ““+++” (≥50 = +++)”; that for “240 (ILLEQAFYL; listed as Homo sapiens) [compound 240]” was ““+++” (≥50 = +++)”. The same measure for “14 (AAYGGLNEKSFV; listed as Homo sapiens) [compound 14]”: ““+++” (≥50 = +++)”; for “494 (ALQPEPIKV; listed as Homo sapiens) [compound 494]”: ““++” (≥20% = ++)”; for “554 (LLMPSSEDLLL; listed as Homo sapiens) [compound 554]”: ““+++” (≥50 = +++)”. For the substance “83 (ILAPTVMMI; listed as Homo sapiens) [compound 83]”, the “Peptide exchange” value was ““+++” (≥50 = +++)”.

With “331 (KVDTVWVNV; listed as Homo sapiens) [compound 331]”, the “Peptide exchange” value was ““+++” (≥50 = +++)”. As to “177 (YLLPEEYTSTL; listed as Homo sapiens) [compound 177]”, the “Peptide exchange” value is recorded as ““++++” (≥75% = ++++)”.

On to “69 (FQLDPSSGVLVTV; listed as Homo sapiens) [compound 69]”, for which the “Peptide exchange” value was ““+++” (≥50 = +++)”. Turning to “164 (ALLPQPKNLTV; listed as Homo sapiens) [compound 164]”, the “Peptide exchange” value is given as ““+++” (≥50 = +++)”. “18 (YLVAKLVEV; listed as Homo sapiens) [compound 18]”: the “Peptide exchange” value is ““++” (≥20% = ++)”. For “104 (STMEQNFLL; listed as Homo sapiens) [compound 104]”, the “Peptide exchange” value is listed as ““++++” (≥75% = ++++)”. The value for “32 (KLDDLTQDLTV; listed as Homo sapiens) [compound 32]” was ““++” (≥20% = ++)”; that for “284 (ILLSQTTGV; listed as Homo sapiens) [compound 284]” was ““+++” (≥50 = +++)”; that for “586 (KLKPGDLVGV; listed as Homo sapiens) [compound 586]” was ““+++” (≥50 = +++)”. The same measure for “41 (SLMPHIPGL; listed as Homo sapiens) [compound 41]”: ““+++” (≥50 = +++)”. Turning to “288 (NLINEINGV; listed as Homo sapiens) [compound 288]”, the “Peptide exchange” value is ““+++” (≥50 = +++)”. The value for “38 (FLLEDDIHVS; listed as Homo sapiens) [compound 38]” was ““+++” (≥50 = +++)”; that for “204 (KIAENVEEV; listed as Homo sapiens) [compound 204]” was ““++” (≥20% = ++)”. The same measure for “165 (SLLDEIRAV; listed as Homo sapiens) [compound 165]”: ““+++” (≥50 = +++)”. The value for “611 (YLLDDGTLVV; listed as Homo sapiens) [compound 611]” was ““++++” (≥75% = ++++)”; that for “304 (MTLGQIYYL; listed as Homo sapiens) [compound 304]” was ““+++” (≥50 = +++)”; that for “545 (LLADLLHNV; listed as Homo sapiens) [compound 545]” was ““+++” (≥50 = +++)”. As to “604 (SILDRDDIFV; listed as Homo sapiens) [compound 604]”, the “Peptide exchange” value is ““+++” (≥50 = +++)”. The same measure for “116 (YHIDEEVGF; listed as Homo sapiens) [compound 116]”: ““+” (≥10% = +)”; for “200 (LLFGSVQEV; listed as Homo sapiens) [compound 200]”: ““+++” (≥50 = +++)”; for “583 (ILANDGVLLAA; listed as Homo sapiens) [compound 583]”: ““+++” (≥50 = +++)”. The same measure for “214 (FLLDLDPLLL; listed as Homo sapiens) [compound 214]”: ““+++” (≥50 = +++)”; for “9 (GAAKDLPGV; listed as Homo sapiens) [compound 9]”: ““++” (≥20% = ++)”. The same measure for “347 (SLFKHDPAAWEA; listed as Homo sapiens) [compound 347]”: ““++++” (≥75% = ++++)”; for “613 (RLLPPGAVVAV; listed as Homo sapiens) [compound 613]”: ““+++” (≥50 = +++)”. For “301 (FLVEDLVDSL; listed as Homo sapiens) [compound 301]”, the “Peptide exchange” value is listed as ““+++” (≥50 = +++)”.

“459 (ALITEVVRL; listed as Homo sapiens) [compound 459]”: the “Peptide exchange” value is recorded as ““++” (≥20% = ++)”.
